Reference: patent publication US20240299584A1, “NON-CODING RNA PROTECTING AGAINST HEART FAILURE” (MEDIZINISCHE HOCHSCHULE HANNOVER, priority 2019, published 2024)

Key:
[1] = biological target: T1, SSBP1 (Mus musculus, UniProt Q9CYR0); assay: RNA pull-down with circINSR probe, Western blotting; assay type: binding; conditions: Western blot with SSBP1-specific antibodies
T1 construct: biotinylated DNA oligo probes against endogenous or ectopically expressed circ-Insr and linear-Insr; endogenous in cells; host or cells: 3T3 cells
T1 sequence (Q9CYR0 17-152): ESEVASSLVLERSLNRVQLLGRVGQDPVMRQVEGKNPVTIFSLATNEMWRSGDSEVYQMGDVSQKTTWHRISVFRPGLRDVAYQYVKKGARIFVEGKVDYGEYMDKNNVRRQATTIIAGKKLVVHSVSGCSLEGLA
Method: Finally, RNA pull-down experiments were performed to identify potential protein interaction partners of circINSR. To do so, a biotin-labelled probe was designed which spans the backsplice junction (FIG. 8A). […] Mass spectrometry analysis of the pull-down lysates yielded a list of potential protein interactors. After applying several filtering parameters (relative MS peptide count >15, relative enrichment over hostgene and control probe log 2FC>2) and cat rapid analysis to calculate the interaction propensity with circINSR, Single-stranded DNA-binding protein 1, SSBP1, was identified as the most probable binding partner of circINSR (FIG. 8B). […] Moreover, co-localisation of circINSR and SSBP1 in Immuno-RNA-FISH staining, further confirmed the interaction between those two.
Cell pellets were lysed in 1× Cell lysis buffer (Cell Signaling) and isolated protein was measured by Bradford (Biorad) for quantification. […] Band intensity was calculated by Image J software.
10^6 cells were washed in ice-cold phosphate-buffered saline, lysed in 500 μl co-IP buffer, and incubated with 3 μg biotinylated DNA oligo probes against endogenous or ectopically expressed circ-Insr and linear-Insr, at room temperature for 2 h. […] The bound proteins in the pull-down materials were analyzed by western blotting and the RNA sample were analysed via qRT-PCR.

[2] = tested on: HL-1 cells; assay: mtDNA copy number measurement; assay type: cell-based, mouse; conditions: doxorubicin 0.25 μM 48 h, circ-Insr by overexpression plasmid
Method: Based on the results of the foregoing examples, it was reasoned that circ-Insr could interact with SSBP1. To further confirm the interaction between circ-Insr and SSBP1, siRNA mediated circ-Insr knock-down was applied in HL-1 cells. Next, RNA pulldown was performed with circ-Insr and scramble biotinylated probes. RT-qPCR confirmed that decrease of circ-Insr appeared both in input and circ-Insr pulldown group (FIG. 23A). […] Therefore, we assumed that circ-Insr is a cofactor of SSBP1 resulting in the regulation of mitochondrial function in cardiomyocytes by stabilizing mtDNA. […] Furthermore, mito-damage assay was applied to measure the changes in mitochondrial membrane potential (MMP). […] Next, we co-transfected HL-1 cells with pcDNA-circ-Insr and SSBP1 siRNA and examined cell viability using the WST assay to explore whether SSBP1 participated in the circ-Insr overexpression-mediated therapy of doxorubicin-cardiotoxicity. RT-qPCR indicated SSBP1 siRNA could downregulate endogenous SSBP1 expression (FIG. 23G).
The ratio of mtDNA to genomic DNA was calculated by dividing copies of CYTB with copies of ACTB in each experiment (Li J, Chan M C, Yu Y, Bei Y H, Chen P, Zhou Q L, et al. miR-29b contributes to multiple types of muscle atrophy. Nature communications. 2017; 8). […] Fluorescence was measured during the last step of each cycle using the SYBR channel. […]

B1: circINSR: circRNA formed through backsplicing of the second exon of the insulin receptor gene transcript; overexpressed from plasmid or AAV (nucleic acid, listed as Homo sapiens)
chain: UGUGUCCCGGCAUGGAUAUCCGGAACAACCUCACUAGGUUGCAUGAGCUGGAGAAUUGCUCUGUCAUCGAAGGACACUUGCAGAUACUCUUGAUGUUCAAAACGAGGCCCGAAGAUUUCCGAGACCUCAGUUUCCCCAAACUCAUCAUGAUCACUGAUUACUUGCUGCUCUUCCGGGUCUAUGGGCUCGAGAGCCUGAAGGACCUGUUCCCCAACCUCACGGUCAUCCGGGGAUCACGACUGUUCUUUAACUACGCGCUGGUCAUCUUCGAGAUGGUUCACCUCAAGGAACUCGGCCUCUACAACCUGAUGAACAUCACCCGGGGUUCUGUCCGCAUCGAGAAGAACAAUGAGCUCUGUUACUUGGCCACUAUCGACUGGUCCCGUAUCCUGGAUUCCGUGGAGGAUAAUUACAUCGUGUUGAACAAAGAUGACAACGAGGAGUGUGGAGACAUCUGUCCGGGUACCGCGAAGGGCAAGACCAACUGCCCCGCCACCGUCAUCAACGGGCAGUUUGUCGAACGAUGUUGGACUCAUAGUCACUGCCAGAAAG
modifications: circular RNA; RNA sequence
notes: circRNA formed through backsplicing of the second exon of the insulin receptor gene transcript; overexpressed from plasmid or AAV
[1]
  interaction of circINSR with SSBP1: confirmed a physical interaction
[2]
  mtDNA copy number / mtDNA content: reverse the decrease
